Binding (ug ssDNA/ug collagen) data for one sequence are collected here from patent US20240026334.

The data set addresses type I collagen (Rattus norvegicus) (UniProt P02454+P02466). Conditions: maximum binding at 12-18% DNA mass fraction; binding decreases at higher DNA fraction, no fibers at ~45% DNA; collagen species not stated in this example.

type I collagen (Rattus norvegicus), sequence (P02454 152-1207, chain 1 of 2): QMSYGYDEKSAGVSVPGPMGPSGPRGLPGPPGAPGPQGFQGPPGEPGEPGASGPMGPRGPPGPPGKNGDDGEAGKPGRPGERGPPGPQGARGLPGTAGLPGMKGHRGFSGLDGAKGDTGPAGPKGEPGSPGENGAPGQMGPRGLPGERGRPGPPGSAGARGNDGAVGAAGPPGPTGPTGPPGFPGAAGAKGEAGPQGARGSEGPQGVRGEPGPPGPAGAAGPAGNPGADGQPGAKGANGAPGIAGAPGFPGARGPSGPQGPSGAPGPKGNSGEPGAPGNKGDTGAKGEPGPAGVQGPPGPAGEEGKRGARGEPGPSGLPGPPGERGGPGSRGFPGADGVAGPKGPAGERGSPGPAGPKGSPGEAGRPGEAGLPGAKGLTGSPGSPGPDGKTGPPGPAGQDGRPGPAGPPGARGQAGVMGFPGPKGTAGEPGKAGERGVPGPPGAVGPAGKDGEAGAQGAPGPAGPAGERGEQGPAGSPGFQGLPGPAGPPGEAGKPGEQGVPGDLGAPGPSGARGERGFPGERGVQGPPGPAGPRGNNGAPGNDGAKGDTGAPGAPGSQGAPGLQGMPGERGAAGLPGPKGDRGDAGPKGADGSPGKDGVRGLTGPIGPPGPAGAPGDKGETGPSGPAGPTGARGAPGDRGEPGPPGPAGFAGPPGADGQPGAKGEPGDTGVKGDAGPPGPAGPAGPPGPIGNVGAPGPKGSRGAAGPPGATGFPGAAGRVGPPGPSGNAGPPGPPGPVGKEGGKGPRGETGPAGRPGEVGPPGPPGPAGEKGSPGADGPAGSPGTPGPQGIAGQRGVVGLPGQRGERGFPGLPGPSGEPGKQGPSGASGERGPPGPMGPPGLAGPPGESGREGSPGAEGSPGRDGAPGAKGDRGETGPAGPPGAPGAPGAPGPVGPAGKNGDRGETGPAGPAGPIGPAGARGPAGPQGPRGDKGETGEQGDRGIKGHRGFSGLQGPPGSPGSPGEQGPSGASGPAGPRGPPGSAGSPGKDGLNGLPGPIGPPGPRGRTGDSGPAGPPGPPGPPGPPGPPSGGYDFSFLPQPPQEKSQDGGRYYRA
type I collagen (Rattus norvegicus), sequence (P02466 86-1125, chain 2 of 2): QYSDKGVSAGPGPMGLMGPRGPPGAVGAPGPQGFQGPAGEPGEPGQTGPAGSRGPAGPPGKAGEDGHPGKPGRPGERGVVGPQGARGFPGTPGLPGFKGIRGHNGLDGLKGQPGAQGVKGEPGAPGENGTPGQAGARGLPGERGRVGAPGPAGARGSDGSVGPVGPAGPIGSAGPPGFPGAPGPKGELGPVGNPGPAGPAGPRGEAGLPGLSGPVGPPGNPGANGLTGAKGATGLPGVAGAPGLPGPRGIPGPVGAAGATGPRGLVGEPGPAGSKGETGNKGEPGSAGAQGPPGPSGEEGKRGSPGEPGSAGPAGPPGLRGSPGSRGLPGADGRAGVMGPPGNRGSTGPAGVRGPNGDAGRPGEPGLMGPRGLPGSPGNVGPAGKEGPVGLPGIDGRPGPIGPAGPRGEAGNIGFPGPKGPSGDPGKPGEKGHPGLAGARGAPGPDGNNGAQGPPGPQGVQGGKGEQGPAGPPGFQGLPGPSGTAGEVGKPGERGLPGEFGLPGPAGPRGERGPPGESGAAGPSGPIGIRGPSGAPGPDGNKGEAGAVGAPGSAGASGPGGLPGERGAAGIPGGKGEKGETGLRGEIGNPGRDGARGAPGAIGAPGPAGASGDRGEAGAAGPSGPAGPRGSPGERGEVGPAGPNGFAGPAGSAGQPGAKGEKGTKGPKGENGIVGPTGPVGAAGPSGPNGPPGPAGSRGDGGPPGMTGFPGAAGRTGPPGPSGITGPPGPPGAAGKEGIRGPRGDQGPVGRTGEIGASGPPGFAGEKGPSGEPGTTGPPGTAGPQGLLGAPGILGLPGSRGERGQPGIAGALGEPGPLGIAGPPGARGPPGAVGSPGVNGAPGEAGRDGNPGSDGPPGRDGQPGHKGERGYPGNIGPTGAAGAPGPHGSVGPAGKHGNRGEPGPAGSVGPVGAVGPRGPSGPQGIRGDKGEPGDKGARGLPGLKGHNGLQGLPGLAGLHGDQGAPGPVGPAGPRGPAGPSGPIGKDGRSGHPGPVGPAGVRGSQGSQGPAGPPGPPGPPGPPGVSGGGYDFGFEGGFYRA

As to “AATTTAGGAGCTGAAGGTCAGGGCACCAGCAGCCTTTGGAAGCCTAVAGGACAACAGTCAGCCTGGCTAGAAAAAAAAACAATGTCACAG [90 nt random ssDNA oligomer]”, the binding (ug ssDNA/ug collagen) turned out to be 0.15.
